Data on three molecules can be found in patent US20230357838, “Double-Stranded DNA Deaminases and Uses Thereof” (New England Biolabs, Inc., published 2023).

Common to all, as to assay: cell-based or functional assay
The target of data set [1] is T1, MGYPDa23 (unidentified).
T1 chain: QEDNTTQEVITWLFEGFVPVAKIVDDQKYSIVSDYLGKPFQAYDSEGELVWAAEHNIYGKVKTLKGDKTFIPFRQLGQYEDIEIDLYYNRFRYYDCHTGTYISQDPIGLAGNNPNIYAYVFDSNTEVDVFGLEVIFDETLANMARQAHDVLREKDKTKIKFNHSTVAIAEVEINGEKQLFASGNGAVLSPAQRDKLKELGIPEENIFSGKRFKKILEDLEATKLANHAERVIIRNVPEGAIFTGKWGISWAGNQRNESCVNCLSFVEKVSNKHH

The target in data set [2] is T2, RaDa01 (Ruminococcus sp.).
T2 chain: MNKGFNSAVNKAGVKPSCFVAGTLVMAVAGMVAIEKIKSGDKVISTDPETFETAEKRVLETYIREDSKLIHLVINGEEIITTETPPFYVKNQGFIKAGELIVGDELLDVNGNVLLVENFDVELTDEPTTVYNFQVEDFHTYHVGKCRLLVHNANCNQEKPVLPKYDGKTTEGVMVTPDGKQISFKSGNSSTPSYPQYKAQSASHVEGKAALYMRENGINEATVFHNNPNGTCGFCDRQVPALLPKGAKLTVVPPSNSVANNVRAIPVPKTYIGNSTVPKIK

Data set [3] deals with T3, d38_MGYPDa829 (unidentified).
T3 chain: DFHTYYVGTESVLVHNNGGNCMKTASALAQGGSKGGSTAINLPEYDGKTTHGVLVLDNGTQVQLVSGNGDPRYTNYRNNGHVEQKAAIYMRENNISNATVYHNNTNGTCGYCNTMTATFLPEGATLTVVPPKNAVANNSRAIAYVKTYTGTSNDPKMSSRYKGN

For data set [4], the target named is T4, LbsDa01 (Simiaoa sunii).
T4 chain: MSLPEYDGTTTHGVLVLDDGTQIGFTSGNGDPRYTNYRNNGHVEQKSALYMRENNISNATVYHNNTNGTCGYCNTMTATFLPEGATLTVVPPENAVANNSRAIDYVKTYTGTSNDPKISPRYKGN

The target of data set [5] is T5, MGYPDa20 (unidentified).
T5 chain: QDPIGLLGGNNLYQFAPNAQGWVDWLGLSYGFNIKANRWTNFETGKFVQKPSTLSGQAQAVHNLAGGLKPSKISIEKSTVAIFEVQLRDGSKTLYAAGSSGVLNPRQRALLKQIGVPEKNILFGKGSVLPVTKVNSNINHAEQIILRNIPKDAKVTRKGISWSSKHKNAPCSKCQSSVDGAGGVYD

Data set [6] has as its target MGYPDa01 (unidentified).
Data set [7] deals with T6, CrDa01 (Clostridium roseum).
T6 chain: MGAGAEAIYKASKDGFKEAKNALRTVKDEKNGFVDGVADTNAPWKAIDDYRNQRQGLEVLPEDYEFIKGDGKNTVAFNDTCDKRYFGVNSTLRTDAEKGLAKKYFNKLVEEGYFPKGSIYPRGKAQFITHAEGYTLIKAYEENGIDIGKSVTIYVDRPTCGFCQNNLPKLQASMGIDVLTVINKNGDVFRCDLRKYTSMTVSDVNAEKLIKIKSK

The target in data set [8] is T7, AvDa02 (Actinomyces viscosus).
T7 chain: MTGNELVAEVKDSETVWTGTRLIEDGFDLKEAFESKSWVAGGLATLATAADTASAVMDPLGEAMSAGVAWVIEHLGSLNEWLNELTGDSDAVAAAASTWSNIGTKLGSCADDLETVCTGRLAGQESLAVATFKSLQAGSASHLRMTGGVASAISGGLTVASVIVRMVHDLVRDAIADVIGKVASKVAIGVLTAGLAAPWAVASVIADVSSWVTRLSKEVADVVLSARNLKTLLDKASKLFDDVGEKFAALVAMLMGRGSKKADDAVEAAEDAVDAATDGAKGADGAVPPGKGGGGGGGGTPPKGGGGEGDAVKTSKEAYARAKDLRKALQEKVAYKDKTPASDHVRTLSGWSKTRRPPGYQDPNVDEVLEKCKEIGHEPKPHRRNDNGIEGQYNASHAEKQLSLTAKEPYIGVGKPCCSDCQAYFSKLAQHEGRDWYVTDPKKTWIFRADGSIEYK

MGYPDa01 (unidentified), sequence (chain, as listed by the source): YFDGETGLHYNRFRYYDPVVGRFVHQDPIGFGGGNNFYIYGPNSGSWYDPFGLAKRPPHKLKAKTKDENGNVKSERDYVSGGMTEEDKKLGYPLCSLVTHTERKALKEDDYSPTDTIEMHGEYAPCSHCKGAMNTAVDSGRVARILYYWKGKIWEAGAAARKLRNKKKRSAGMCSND

B1: 40 bp 5caC oligo (dsDNA)
DNA 1: AAATTTAATTATAAAACGATCGACGACGAAATAATAAAAA
DNA 2: TTTTTATTATTTCGTCGTCGATCGTTTTATAATTAAATTT
modifications: 5caC at all four C of the listed strand sites
B1: the activity in data set [1] was found to be 0.02 fraction deaminated; in data set [2], 0.47 fraction deaminated; in data set [3], 0.1 fraction deaminated; in data set [4], 0.1 fraction deaminated.

B2: 40 bp control C oligo (dsDNA)
DNA 1: B1 DNA 1
DNA 2: B1 DNA 2
On to B2, for which the activity in data set [5] came to 0.59 fraction deaminated; in data set [1], 0.97 fraction deaminated; in data set [2] it was 0.98 fraction deaminated; in data set [3], 0.88 fraction deaminated; in data set [6], 0.12 fraction deaminated; in data set [4] it was 0.92 fraction deaminated. In data set [7], the activity was 0.98 fraction deaminated.

B3: 40 bp 5fC oligo (dsDNA)
DNA 1: B1 DNA 1
DNA 2: B1 DNA 2
modifications: 5fC at all four C of the listed strand sites
On to B3, for which the activity is 0.23 fraction deaminated in data set [1]; 0.66 fraction deaminated in data set [2]; 0.12 fraction deaminated in data set [3]; 0.14 fraction deaminated in data set [4]; 0.09 fraction deaminated in data set [7]; 0.08 fraction deaminated in data set [8].
